The record followed here is patent US20060292689A1.

The target of this test is CCR-2 (human) (UniProt P41597). Description: cell-based or functional assay.
Sequence of CCR-2 (human) (P41597 whole entry): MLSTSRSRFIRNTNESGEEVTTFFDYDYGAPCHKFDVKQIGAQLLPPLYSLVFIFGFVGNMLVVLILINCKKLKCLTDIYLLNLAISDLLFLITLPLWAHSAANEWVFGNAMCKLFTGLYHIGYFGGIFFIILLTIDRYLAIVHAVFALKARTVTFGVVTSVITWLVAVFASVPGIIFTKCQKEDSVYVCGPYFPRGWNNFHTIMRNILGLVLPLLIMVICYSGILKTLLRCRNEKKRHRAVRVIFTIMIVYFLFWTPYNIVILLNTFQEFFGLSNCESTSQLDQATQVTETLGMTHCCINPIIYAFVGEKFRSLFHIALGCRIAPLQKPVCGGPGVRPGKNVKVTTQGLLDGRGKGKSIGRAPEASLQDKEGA

“MCP-1 (from UniProt P13500 24-99) (ligand)” showed a mean fluorescence intensity of CaR expression on monocytes of 673 units.
